Assay results reported in PMC2783173.

How the values were obtained:
Assay in all cases: split reporter
[1] = target: HIV-1 Nef (SF2) 2PA (SH3-binding motif mutant), YFP BiFC fusions (HIV-1 (SF2 allele)) (UniProt P03407)
[2] = target: HIV-1 Nef (SF2) D123A, YFP BiFC fusions (HIV-1 (SF2 allele))
[3] = target: HIV-1 Nef (SF2) D123N, YFP BiFC fusions (HIV-1 (SF2 allele))
[4] = target: HIV-1 Nef (SF2) D123V, YFP BiFC fusions (HIV-1 (SF2 allele))
[5] = target: HIV-1 Nef (SF2) F121A, YFP BiFC fusions (HIV-1 (SF2 allele))
[6] = target: HIV-1 Nef (SF2) I109D/L112D/Y115D/F121D, YFP BiFC fusions (HIV-1 (SF2 allele))
[7] = target: HIV-1 Nef (SF2) L112A, YFP BiFC fusions (HIV-1 (SF2 allele))
[8] = target: HIV-1 Nef (SF2) L112D, YFP BiFC fusions (HIV-1 (SF2 allele))
[9] = target: HIV-1 Nef (SF2) L112D/Y115D, YFP BiFC fusions (HIV-1 (SF2 allele))
[10] = target: HIV-1 Nef (SF2) R105E, YFP BiFC fusions (HIV-1 (SF2 allele))
[11] = target: HIV-1 Nef (SF2) R105E/R106E, YFP BiFC fusions (HIV-1 (SF2 allele))
[12] = target: HIV-1 Nef (SF2) Y115D, YFP BiFC fusions (HIV-1 (SF2 allele))

“HIV-1 Nef (SF2) 2PA (SH3-binding motif mutant), YFP BiFC fusions (from UniProt P03407) (natural protein)” showed a % decrease in BiFC relative to WT [1] of 0%.
In the case of “HIV-1 Nef (SF2) D123A, YFP BiFC fusions (natural protein)”, the % decrease in BiFC relative to WT [2] was 69.6%.
“HIV-1 Nef (SF2) D123N, YFP BiFC fusions (natural protein)” gave a % decrease in BiFC relative to WT [3] of 97.1%.
In the case of “HIV-1 Nef (SF2) D123V, YFP BiFC fusions (natural protein)”, the % decrease in BiFC relative to WT [4] was 52.9%.
In the case of “HIV-1 Nef (SF2) F121A, YFP BiFC fusions (natural protein)”, the % decrease in BiFC relative to WT [5] was 33%.
Work on “HIV-1 Nef (SF2) I109D/L112D/Y115D/F121D, YFP BiFC fusions (natural protein)” yielded a % decrease in BiFC relative to WT [6] of 99.9%.
Substance “HIV-1 Nef (SF2) L112A, YFP BiFC fusions (natural protein)” has a % decrease in BiFC relative to WT [7] of 52.8%.
“HIV-1 Nef (SF2) L112D, YFP BiFC fusions (natural protein)” was tested, and the % decrease in BiFC relative to WT [8] was 47.5%.
“HIV-1 Nef (SF2) L112D/Y115D, YFP BiFC fusions (natural protein)” was tested, and the % decrease in BiFC relative to WT [9] was 86.7%.
In the case of “HIV-1 Nef (SF2) R105E, YFP BiFC fusions (natural protein)”, the % decrease in BiFC relative to WT [10] was 49.9%.
Substance “HIV-1 Nef (SF2) R105E/R106E, YFP BiFC fusions (natural protein)” has a % decrease in BiFC relative to WT [11] of 71.1%.
In the case of “HIV-1 Nef (SF2) Y115D, YFP BiFC fusions (natural protein)”, the % decrease in BiFC relative to WT [12] was 59.1%.
